How the values were obtained:
Assay in all cases: cell-based or functional assay
[1] = target: HIV-1 Env of isolate MGRM-G-027 (HIV-1)
[2] = target: HIV-1 92UG024 envelope glycoprotein (Env) on pseudovirus (HIV-1)
[3] = target: HIV-1 MGRM-Chronic-B-008 Env (pseudovirus) (HIV-1)
[4] = target: HIV-1 NL43 envelope glycoprotein (Env) on pseudovirus (HIV-1)
[5] = target: HIV-1 Env of isolate MGRM-G-013 (HIV-1)
[6] = target: HIV-1 Env of isolate MGRM-G-016 (HIV-1)
[7] = target: HIV-1 Env of isolate MGRM-G-017 (HIV-1)
[8] = target: HIV-1 Env of isolate MGRM-C-009 (pseudovirus) (HIV-1 isolate MGRM-C-009, subtype C)
[9] = target: HIV-1 Env of isolate MGRM-G-019 (HIV-1)
[10] = target: HIV-1 Env of isolate MGRM-G-011 (HIV-1)
[11] = target: HIV-1 Env of isolate MGRM-AE-005 (HIV-1)
[12] = target: HIV-1 Env of isolate MGRM-F1-013 (HIV-1)
[13] = target: HIV-1 92BR020 envelope glycoprotein (Env) on pseudovirus (HIV-1)
[14] = target: HIV-1 Env of isolate MGRM-G-014 (HIV-1)
[15] = target: HIV-1 Env of isolate MGRM-AE-007 (HIV-1)
[16] = target: HIV-1 Env of isolate MGRM-AE-006 (HIV-1)
[17] = target: HIV-1 Env of isolate MGRM-G-001 (HIV-1)
[18] = target: HIV-1 Env of isolate MGRM-AE-004 (HIV-1)
[19] = target: aMLV envelope (negative control pseudovirus)
[20] = target: HIV-1 Env of isolate MGRM-G-004 (HIV-1)
[21] = target: HIV-1 Env of isolate MGRM-AE-008 (HIV-1)
[22] = target: HIV-1 Env of isolate MGRM-G-009 (HIV-1)
[23] = target: HIV-1 Env of isolate MGRM-G-006 (HIV-1)
[24] = target: HIV-1 92TH021 envelope glycoprotein (Env) on pseudovirus (HIV-1)
[25] = target: HIV-1 92RW020 envelope glycoprotein (Env) on pseudovirus (HIV-1)
[26] = target: HIV-1 Env of isolate MGRM-G-015 (HIV-1)

In the case of 4877_D15 (PGT-122) (antibody), the IC50, pseudovirus neutralization [1] is reported as 0.606 µg/mL, the IC50 (ug/ml), neutralizing activity [2] is reported as > 10 µg/mL and the IC50, pseudovirus neutralization [3] is reported as 0.017 µg/mL. For the same substance, the IC50 (ug/ml), neutralizing activity [4] was > 10 µg/mL, the IC50, pseudovirus neutralization [5] was 3.45 µg/mL and the IC50, pseudovirus neutralization [6] was > 50 µg/mL. For the same substance, the IC50, pseudovirus neutralization [7] was 0.032 µg/mL, the IC50 (µg/mL) neutralization [8] was > 50 µg/mL and the IC50, pseudovirus neutralization [9] was 0.016 µg/mL. The IC50, pseudovirus neutralization [10] was 31.3 µg/mL, the neutralization IC50 [11] was > 50 µg/mL and the IC50 [12] was 0.152 µg/mL. The IC50 (ug/ml), neutralizing activity [13] was 0.0337 µg/mL, the IC50, pseudovirus neutralization [14] was 0.008 µg/mL and the neutralization IC50 [15] was > 50 µg/mL. For the same substance, the neutralization IC50 [16] was > 50 µg/mL, the IC50, pseudovirus neutralization [17] was 0.005 µg/mL and the neutralization IC50 [18] was > 50 µg/mL. The IC50, pseudovirus neutralization [19] was > 50 µg/mL, the Neutralization by PGT-122, IC50 [19] was > 10 µg/mL and the Neutralization by PGT-122, IC80 [19] was > 10 µg/mL. For the same substance, the Neutralization by PGT-122, IC90 [19] was > 10 µg/mL, the Neutralization by PGT-122, IC95 [19] was > 10 µg/mL and the IC50, pseudovirus neutralization [20] was 2.15 µg/mL. For the same substance, the neutralization IC50 [21] was > 50 µg/mL, the IC50, pseudovirus neutralization [22] was 0.514 µg/mL and the IC50, pseudovirus neutralization [23] was > 50 µg/mL. The IC50 (ug/ml), neutralizing activity [24] was > 10 µg/mL, the IC50 (ug/ml), neutralizing activity [25] was 0.0072 µg/mL and the IC50, pseudovirus neutralization [26] was > 50 µg/mL.
For 5123_A06 (PGT-125) (antibody), the IC50, pseudovirus neutralization [1] was 34.4 µg/mL, the IC50 (ug/ml), neutralizing activity [2] was > 10 µg/mL and the neutralization IC50 [2] was > 10 µg/mL. For the same substance, the neutralization IC80 [2] was > 10 µg/mL, the neutralization IC90 [2] was > 10 µg/mL and the neutralization IC95 [2] was > 10 µg/mL. The IC50, pseudovirus neutralization [3] was > 50 µg/mL, the IC50 (ug/ml), neutralizing activity [4] was > 10 µg/mL and the neutralization IC50 [4] was > 10 µg/mL. The neutralization IC80 [4] was > 10 µg/mL, the neutralization IC90 [4] was > 10 µg/mL and the neutralization IC95 [4] was > 10 µg/mL. The IC50, pseudovirus neutralization [5] was > 50 µg/mL, the IC50, pseudovirus neutralization [6] was > 50 µg/mL and the IC50, pseudovirus neutralization [7] was > 50 µg/mL. The IC50 (µg/mL) neutralization [8] was > 50 µg/mL, the IC50, pseudovirus neutralization [9] was > 50 µg/mL and the IC50, pseudovirus neutralization [10] was > 50 µg/mL. For the same substance, the neutralization IC50 [11] was 0.01 µg/mL, the IC50 [12] was > 50 µg/mL and the IC50 (ug/ml), neutralizing activity [13] was 0.0214 µg/mL. It also gave a neutralization IC50 [13] of 0.0214 µg/mL, a neutralization IC80 [13] of 0.0738 µg/mL and a neutralization IC90 [13] of 0.156 µg/mL. The neutralization IC95 [13] was 0.323 µg/mL, the IC50, pseudovirus neutralization [14] was 0.007 µg/mL and the neutralization IC50 [15] was 0.876 µg/mL. For the same substance, the neutralization IC50 [16] was 0.009 µg/mL, the IC50, pseudovirus neutralization [17] was 0.033 µg/mL and the neutralization IC50 [18] was > 50 µg/mL. The IC50, pseudovirus neutralization [19] was > 50 µg/mL, the IC50, pseudovirus neutralization [20] was > 50 µg/mL and the neutralization IC50 [21] was > 50 µg/mL. The IC50, pseudovirus neutralization [22] was > 50 µg/mL, the IC50, pseudovirus neutralization [23] was > 50 µg/mL and the IC50 (ug/ml), neutralizing activity [24] was 0.0066 µg/mL. The neutralization IC50 [24] was 0.0066 µg/mL, the neutralization IC80 [24] was 0.0292 µg/mL and the neutralization IC90 [24] was 0.0701 µg/mL. The neutralization IC95 [24] was 0.157 µg/mL, the IC50 (ug/ml), neutralizing activity [25] was 0.0028 µg/mL and the neutralization IC50 [25] was 0.0028 µg/mL. It also gave a neutralization IC80 [25] of 0.011 µg/mL, a neutralization IC90 [25] of 0.0248 µg/mL and a neutralization IC95 [25] of 0.0526 µg/mL. For the same substance, the IC50, pseudovirus neutralization [26] was > 50 µg/mL.
5141_B17 (PGT-126) (antibody) was tested, and the IC50, pseudovirus neutralization [1] was 0.875 µg/mL, the IC50 (ug/ml), neutralizing activity [2] was > 10 µg/mL and the IC50, pseudovirus neutralization [3] was 5.89 µg/mL. For the same substance, the IC50 (ug/ml), neutralizing activity [4] was > 10 µg/mL, the IC50, pseudovirus neutralization [5] was 48.8 µg/mL and the IC50, pseudovirus neutralization [6] was > 50 µg/mL. The IC50, pseudovirus neutralization [7] was > 50 µg/mL, the IC50 (µg/mL) neutralization [8] was > 50 µg/mL and the IC50, pseudovirus neutralization [9] was 0.018 µg/mL. For the same substance, the IC50, pseudovirus neutralization [10] was 7.32 µg/mL, the neutralization IC50 [11] was 0.324 µg/mL and the IC50 [12] was > 50 µg/mL. The IC50 (ug/ml), neutralizing activity [13] was 0.0163 µg/mL, the IC50, pseudovirus neutralization [14] was 0.009 µg/mL and the neutralization IC50 [15] was > 50 µg/mL. The neutralization IC50 [16] was 17.3 µg/mL, the IC50, pseudovirus neutralization [17] was 0.038 µg/mL and the neutralization IC50 [18] was > 50 µg/mL. For the same substance, the IC50 [19] was > 10 µg/mL, the IC50, pseudovirus neutralization [19] was > 50 µg/mL and the IC80 [19] was > 10 µg/mL. The IC90 [19] was > 10 µg/mL, the IC95 [19] was > 10 µg/mL and the IC50, pseudovirus neutralization [20] was > 50 µg/mL. The neutralization IC50 [21] was > 50 µg/mL, the IC50, pseudovirus neutralization [22] was > 50 µg/mL and the IC50, pseudovirus neutralization [23] was > 50 µg/mL. The IC50 (ug/ml), neutralizing activity [24] was 0.115 µg/mL, the IC50 (ug/ml), neutralizing activity [25] was 0.0046 µg/mL and the IC50, pseudovirus neutralization [26] was > 50 µg/mL.

Reference: patent US20200024330A1
